Reference: the supplement of paper PMC9170038

System: MS2 coat protein
Test: apparent KD of MS2 coat protein; designed switch direction (-1 OFF switch, 1 ON switch): -1; higher = weaker reporter binding
In short: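 Designed RNA switches with common flanks were made on Illumina chips by stalled E. coli RNA polymerase. Titration with SNAP-549-labelled MS2 coat protein doubled from 0.7 or 1.5 nM up to 3 µM. Apparent KD is each design's median over clusters after curve-fitting normalised fluorescence.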

[1] = input ligand: microRNA oligo, concentration not stated
[2] = Eterna round: R95, input ligand: microRNA oligo, concentration not stated
[3] = Eterna round: R95, input ligand: FMN 200 uM
[4] = Eterna round: R95, input ligand: none

Sequence	apparent KD of MS2 coat protein (input ligand: FMN 200 uM) [nM]	apparent KD of MS2 coat protein [1] [nM]	apparent KD of MS2 coat protein (input ligand: none) [nM]	apparent KD of MS2 coat protein [2] [nM]	apparent KD of MS2 coat protein [3] [nM]	apparent KD of MS2 coat protein [4] [nM]
GACCUAUAGGUAGGAUAUCAUUGCGAUUAGCUAUGAGAAGGACCACAUGAGGAUCACCCAUGUCCUCCAAUUAACCGAAAGGUC [Fiskers ExNg1 - 3] (Eterna round: R96, puzzle: Exclusion NG 1)	44.9	21.9	30.1			
GACUGCCGAGGAUAUACAUGAGGAUCACCCAUGUGCUUCAGCAUCGAAAGAUGCAUGGGUAGAAGGCGGUAGUC [LRO-Excl3-11] (puzzle: Exclusion 3)				25.4		
GACUGGACAGGAUAUGUUCUUGAGCACUUGAGGAUCACCCAAGUCAUCAAGAACUCAGGCACAGAAGGGUUUAUGG [salish99_ex5_r4_010] (Eterna round: R97, puzzle: Exclusion 5)	23.3		12.1			
GACUGGGCAGGAUAUACAUGAGGAUCACCCAUGUGUCUGCGUCAGGCACGUGUAGACGGUAGAAGGGCCUACAC [ChP 13.04.2015 #16] (puzzle: Exclusion 3)				11.9		
GACUUCUGAGGAUAUACAUAGAUUUACAUGAGGAUCACCCAUGUUCCUCUAUGUAUAAAUGUAGAAGGCAGAAGAA [Mat - Exclusion 5 - JL Mod - D64] (Eterna round: R97, puzzle: Exclusion 5)	66.8		15.5			
GACUUGUCAGGAUAUCUUACAUAAACAUCGUAGUUACAAUUGGAGAAGGGACAUGAGGAUCACCCAUGUUUGCC [tap-tap-tappy30] (Eterna round: R97, puzzle: Exclusion 4)	16.8		17.5			
GACUUGUUAGGAUAUCUUACAUUUGCAUUAUAGCAACUAUUGGAGAAGGGACAUGAGGAUCACCCAUGUUUGGG [tap-tap-tappy17] (Eterna round: R97, puzzle: Exclusion 4)	504		479			
GAGAAACAUGAGGAUCACCCAUGUAAGGAUAUGCUGAAAACAACGGAUAAAACGUGCAGCAGAAGGUACAAAGG [Mat - Mod of my Eli Mod D41] (puzzle: Exclusion 1)				72.1	76.5	72.4
GAGAAACAUGAGGAUCACCCAUGUCAGGAUAUUCGGAGGAGAGGGAAGAGAGAGAGGAGAAGAAGGGACGAGAG [Exclusion 1 Rhiboswitch & Hairpin Submission (Joejoemyo11)] (puzzle: Exclusion 1)				26	38.7	55.7
GAGAAACAUGAGGAUCACCCAUGUGAGGAUAUGAAAAAGAAAAGAAAAGAAAGAAGAAUCAGAAGGCACAAAGU [salish99-ex1_r3_088] (puzzle: Exclusion 1)				29.7	31.8	32.9
GAGAAAGCAAACAGGUGAAACAUGAGGAUCACCCAUGUCCUCAUUUGCUCGUCUUAUAAGCUAUGCGAAAGCAUAGC [Mat - Sensor v3 - turn-off var 1 - Eli Mod - D54] (puzzle: Sensor v3, turn-off variant 1)				642	63.5	58.7
GAGAACGUAGGAUAUACAUGAGGAUCACCCAUGUGAGGAAGGAGUAGGAAGAGUGGAAGUAGAAGGACGAAGAG [JR_Exclu3_Sub071] (puzzle: Exclusion 3)				36.3	29.3	43.8
GAGAAGGUAGGAUAUACGAAAAAAAAGGGUAGAAAAAAAACACAUGAGGAUCACCCAUGUAGAAGGACCAAAAG [salish99_ex2_r3_035] (puzzle: Exclusion 2)				24.6	68.9	28
GAGAAGGUAGGAUAUACGAAGAAAAAGGGUAGAAUAAGAACACAUGAGGAUCACCCAUGUAGAAGGACCAAGAG [Mat - Exclusion 2 - Mod of my Tesla design - D18] (puzzle: Exclusion 2)				18.6	37.1	14.7
GAGAAGGUAGGAUAUACGAAGAAAGAGGGUAGGAAUAAUACACAUGAGGAUCACCCAUGUAGAAGGACCAAGAG [Mat - Exclusion 2 - Mod of my Tesla design - D46] (puzzle: Exclusion 2)				21.4	38.7	24.2
GAGAAGGUAGGAUAUACGAAUAAAAAGGGUAGAAUAAUAACACAUGAGGAUCACCCAUGUAGAAGGACCAAGAG [Mat - Exclusion 2 - Mod of my Tesla design - D20] (puzzle: Exclusion 2)				25.1	45	26.5

Sequence	apparent KD of MS2 coat protein (input ligand: FMN 200 uM) [nM]	apparent KD of MS2 coat protein [1] [nM]	apparent KD of MS2 coat protein (input ligand: none) [nM]	apparent KD of MS2 coat protein [2] [nM]	apparent KD of MS2 coat protein [3] [nM]	apparent KD of MS2 coat protein [4] [nM]
GAGAAGGUAGGAUAUACGAAUAAAGAGGGUAGGAAUAAGACACAUGAGGAUCACCCAUGUAGAAGGACCAAGAG [Mat - Exclusion 2 - Mod of my Tesla design - D50] (puzzle: Exclusion 2)				20.3	37.1	21.4
GAGACUGGAGGAUAUACGAACUGGUGUAUCUGGAAGGAUCGACUUGAGGAUCACCCAAGUAGAAGGCUAGUGAA [Esgeti] (Eterna round: R97, puzzle: Exclusion 2)	395		40.5			
GAGAGAAUCUAGGAUAUGUCAAGAGAAGGAGAGAUAGAAGGAGAGACAUGAGGAUCACCCAUGUCUUCGUGUAG [Default title] (Eterna round: R97, puzzle: Exclusion 6)	19.4		17.8			
GAGAGGUCAGGAUAUACGGAGAGAGGGAGUAGGUGAGGGUAACAUGAGGAUCACCCAUGUAGAAGGGACUAAGG [JR_Exclu2_Sub076] (puzzle: Exclusion 2)				27.4	26.4	39.9
GAGCAGCGAGGAUAUACAGACGGGUCCAGUACGUGUCUUGGACUUGAGGAUCACCCAAGUAGAAGGCGUCUCAG [salish99_ex2_r4_608] (Eterna round: R97, puzzle: Exclusion 2)	86.8		44.3			
GAGCCGCGAGGAUAUACAGACGAGUCCAUUACGUGUCUCGGACUUGAGGAUCACCCAAGUAGAAGGCGUCUCAG [salish99_ex2_r4_629] (Eterna round: R97, puzzle: Exclusion 2)	34.3		34.2			
GAGCUAUGAGGAUAUGCAUAUAUACGGAUUCGUGUAGUACUACAUGAGGAUCACCCAUGUAGAAGGCGUGGCAG [Mat - Exclusion 2 - Mod of JL - D77] (puzzle: Exclusion 2)				12.1		
GAGCUAUGAGGAUAUGCAUAUAUACGGUUUCGUGUGGUACUACAUGAGGAUCACCCAUGUAGAAGGCGUGGCAG [Mat - Exclusion 2 - Mod of JL - D78] (puzzle: Exclusion 2)				16.7		
GAGCUAUGAGGAUAUGCAUAUAUGCGGUUUCGUGUGGUACUACAUGAGGAUCACCCAUGUAGAAGGCGUGGCUG [JL-ex2-2.06 mat747 mod] (puzzle: Exclusion 2)				14		
GAGCUGAACUCAGGAUAUUGCGAGUCUUGGGUGACAGCUCUGACAUGAGGAUCACCCAUGUACUCCGAGAAGGGAGGCCGGUAA [Zainve] (Eterna round: R96, puzzle: Exclusion NG 2)	125	113	185			
GAGGAACAUGAGGAUCACCCAUGUAAGGAUAUGCAUAGCGAGGUAGUAGAAGGUGAAGGCAGAAGGUACACGGA [JR_Exclu1_Sub076] (puzzle: Exclusion 1)				34.2	31.3	43.8
GAGGAACAUGAGGAUCACCCAUGUAAGGAUAUGCGAGACUAAAGCGCGCAGGCUAAGAGCAGAAGGUGCAAGGA [Excls1-IIa] (puzzle: Exclusion 1)				28.7	36	32.8
GAGGAGACAGGAUAUACAUGAGGAUCACCCAUGUGAGGAGGAGGAGAGAGGAGAAGGAGUAGAAGGGUCAGAGA [JR_Exclu3_Sub024] (puzzle: Exclusion 3)				33.7	45.1	73.8
GAGGCAUGCCGAGGUCCACACAUGAGGAUCACCCAUGUAAUGACAGGCUUUUUACUCGUUUUAUCGCUAUCGCGUUC [Incebece] (puzzle: Sensor v3, turn-off variant 1)				26.4	13.5	12.8
GAGGGACAUGAGGAUCACCCAUGUGAGGAUAUGUAAGAGAGAGGAGAGAGGAUAAGAAACAGAAGGCGCGUGAG [JR_Exclu1_Sub089] (puzzle: Exclusion 1)				55.7	30.1	43.2
